Results taken from US20190031734A1 (CHILDREN S MEDICAL CENTER, published 2019).

B1: CROPs fragment of TcdB (TcdB1831-2366) as used in the cell-binding assays (other)
chain: MVSGLIYINDSLYYFKPPVNNLITGFVTVGDDKYYFNPINGGAASIGETIIDDKNYYFNQSGVLQTGVFSTEDGFKYFAPANTLDENLEGEAIDFTGKLIIDENIYYFDDNYRGAVEWKELDGEMHYFSPETGKAFKGLNQIGDYKYYFNSDGVMQKGFVSINDNKHYFDDSGVMKVGYTEIDGKHFYFAENGEMQIGVFNTEDGFKYFAHHNEDLGNEEGEEISYSGILNFNNKIYYFDDSFTAVVGWKDLEDGSKYYFDEDTAEAYIGLSLINDGQYYFNDDGIMQVGFVTINDKVFYFSDSGIIESGVQNIDDNYFYIDDNGIVQIGVFDTSDGYKYFAPANTVNDNIYGQAVEYSGLVRVGEDVYYFGETYTIETGWIYDMENESDKYYFNPETKKACKGINLIDDIKYYFDEKGIMRTGLISFENNNYYFNENGEMQFGYINIEDKMFYFGEDGVMQIGVFNTPDGFKYFAHQNTLDENFEGESINYTGWLDLDEKRYYFTDEYIAATGSVIIDGEEYYFDPDTAQLVISE
B2: GST-tagged CROPs region of TcdB (residues 1831-2366) (other)
chain: B1 chain

Legend:
[1] = molecular target: T1, CSPG4 endogenous on HeLa cells (human, UniProt Q6UVK1 30-2322); assay: binding to HeLa cells; largely abolished in CSPG4^-/- cells
T1 construct: whole, on cells

[2] = molecular target: T2, FZD2-CRD-Fc, recombinant human protein (ACRO Biosystems) (human, UniProt Q14332 24-190); assay: GST pull-down, immunoblot
T2 construct: domain: cysteine-rich domain (CRD); also called Fc-tagged FZD2-CRD; FZD2-Fc; not shown: Fc tag of the purchased protein

T1 sequence (Q6UVK1 30-2322): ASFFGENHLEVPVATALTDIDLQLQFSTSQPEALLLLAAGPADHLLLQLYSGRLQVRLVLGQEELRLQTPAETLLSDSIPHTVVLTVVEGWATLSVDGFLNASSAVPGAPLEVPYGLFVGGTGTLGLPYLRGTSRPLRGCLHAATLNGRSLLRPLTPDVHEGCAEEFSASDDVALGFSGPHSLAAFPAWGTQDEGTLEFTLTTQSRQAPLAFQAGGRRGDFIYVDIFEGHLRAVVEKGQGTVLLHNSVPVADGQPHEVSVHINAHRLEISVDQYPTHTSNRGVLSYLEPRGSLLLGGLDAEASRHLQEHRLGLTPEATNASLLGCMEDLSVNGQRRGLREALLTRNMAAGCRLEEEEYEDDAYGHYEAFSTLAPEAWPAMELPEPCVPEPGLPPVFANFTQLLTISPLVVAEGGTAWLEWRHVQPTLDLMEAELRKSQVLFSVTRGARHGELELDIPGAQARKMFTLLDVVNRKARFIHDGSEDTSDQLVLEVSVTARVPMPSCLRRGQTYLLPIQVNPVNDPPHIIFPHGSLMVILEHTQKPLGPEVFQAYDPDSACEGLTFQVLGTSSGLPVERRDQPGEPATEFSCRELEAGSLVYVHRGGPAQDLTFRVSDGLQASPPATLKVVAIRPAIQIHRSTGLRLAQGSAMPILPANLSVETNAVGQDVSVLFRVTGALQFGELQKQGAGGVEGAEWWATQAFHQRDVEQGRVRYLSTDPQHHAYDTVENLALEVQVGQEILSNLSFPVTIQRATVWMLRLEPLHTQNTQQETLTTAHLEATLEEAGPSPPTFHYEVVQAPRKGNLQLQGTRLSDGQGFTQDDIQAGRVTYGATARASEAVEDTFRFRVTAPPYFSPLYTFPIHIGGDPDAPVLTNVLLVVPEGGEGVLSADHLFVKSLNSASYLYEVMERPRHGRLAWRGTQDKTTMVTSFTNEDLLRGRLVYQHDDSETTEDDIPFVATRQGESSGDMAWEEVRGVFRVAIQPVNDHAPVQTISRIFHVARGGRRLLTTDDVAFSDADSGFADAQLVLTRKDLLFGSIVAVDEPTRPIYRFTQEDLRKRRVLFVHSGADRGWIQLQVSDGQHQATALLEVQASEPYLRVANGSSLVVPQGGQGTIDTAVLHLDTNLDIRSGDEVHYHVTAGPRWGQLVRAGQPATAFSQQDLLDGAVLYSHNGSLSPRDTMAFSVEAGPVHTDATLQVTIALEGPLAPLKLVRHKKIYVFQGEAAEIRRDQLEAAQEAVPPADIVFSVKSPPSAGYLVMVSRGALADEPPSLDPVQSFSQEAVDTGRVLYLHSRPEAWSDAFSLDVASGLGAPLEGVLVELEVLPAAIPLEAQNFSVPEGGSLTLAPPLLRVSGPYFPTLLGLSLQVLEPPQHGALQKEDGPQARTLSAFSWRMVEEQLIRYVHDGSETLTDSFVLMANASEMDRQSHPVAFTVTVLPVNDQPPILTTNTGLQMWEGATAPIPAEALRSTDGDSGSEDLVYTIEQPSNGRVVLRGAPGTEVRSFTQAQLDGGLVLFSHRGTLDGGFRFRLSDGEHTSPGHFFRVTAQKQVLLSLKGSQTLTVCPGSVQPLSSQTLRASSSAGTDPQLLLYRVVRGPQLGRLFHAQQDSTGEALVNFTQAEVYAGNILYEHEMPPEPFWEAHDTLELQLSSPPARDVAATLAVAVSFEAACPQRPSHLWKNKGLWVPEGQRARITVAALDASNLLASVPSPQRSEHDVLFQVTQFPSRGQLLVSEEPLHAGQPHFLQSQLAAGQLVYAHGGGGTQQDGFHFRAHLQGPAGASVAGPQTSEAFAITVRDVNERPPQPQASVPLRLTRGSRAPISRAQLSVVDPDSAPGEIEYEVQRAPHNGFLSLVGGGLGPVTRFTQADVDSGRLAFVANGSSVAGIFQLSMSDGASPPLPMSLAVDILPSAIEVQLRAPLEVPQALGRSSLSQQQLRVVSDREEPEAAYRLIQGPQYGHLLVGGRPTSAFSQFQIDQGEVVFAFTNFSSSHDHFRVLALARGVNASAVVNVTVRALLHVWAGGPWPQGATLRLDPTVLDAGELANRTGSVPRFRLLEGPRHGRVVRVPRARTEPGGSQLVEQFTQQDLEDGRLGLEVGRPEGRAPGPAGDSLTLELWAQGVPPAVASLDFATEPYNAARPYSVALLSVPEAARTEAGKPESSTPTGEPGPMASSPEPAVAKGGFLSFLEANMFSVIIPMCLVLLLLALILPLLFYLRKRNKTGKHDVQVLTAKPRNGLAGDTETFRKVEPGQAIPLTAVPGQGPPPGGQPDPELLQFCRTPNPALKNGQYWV

Row | Binder | binding result [1] | binding result [2]
1 | B1 | binds | 
2 | B2 |  | no binding (tested: 10 nM FZD2-CRD-Fc)
